# Reference: PMC3961180, “The Kil Peptide of Bacteriophage λ Blocks Escherichia coli Cytokinesis via ZipA-Dependent Inhibition of FtsZ Assembly” (PLoS Genetics, 2014)
# Target: the molecule itself
# Assay: co-sedimentation; FtsZ 5 µM, His6-FLAG-Kil 10 µM, His6-tagged ZipAC domains 5 µM, GTP 1 mM in polymerization buffer; 1 mM CaCl2 for calcium-induced bundling; TLA 100.3 rotor at 70,000 rpm; supernatant and pellet on Coomassie-stained gels
protein,measurement,value
"E. coli FtsZ (natural protein, UniProt P0A9A6 1-383, looked up, cell division protein FtsZ, E. coli; expressed from pET11a-ftsZ (from H. Erickson); No tag is named for this construct; also called FtsZWT; source: E. coli BL21(DE3) pET11a-ftsZ (WM971), purified (successive 20% and 30% ammonium sulfate cuts)) MFEPMELTNDAVIKVIGVGGGGGNAVEHMVRERIEGVEFFAVNTDAQALRKTAVGQTIQIGSGITKGLGAGANPEVGRNAADEDRDALRAALEGADMVFIAAGMGGGTGTGAAPVVAEVAKDLGILTVAVVTKPFNFEGKKRMAFAEQGITELSKHVDSLITIPNDKLLKVLGRGISLLDAFGAANDVLKGAVQGIAELITRPGLMNVDFADVRTVMSEMGYAMMGSGVASGEDRAEEAAEMAISSPLLEDIDLSGARGVLVNITAGFDLRLDEFETVGNTIRAFASDNATVVIGTSLDPDMNDELRVTVVATGIGMDKRPEITLVTNKQVQQPVMDRYQQHGMAPLTQEQKPVAKVVNDNAPQTAKEPDYLDIPAFLRKQAD",binding result,binds
